Results as given in the supplement of paper PMC12042874.
± gives the uncertainty stated by the source.

experiment: amyloid nucleation score (Sup35N fusion, yeast selection) (log enrichment); library NNK3; higher = more nucleation; inactive = no reads after selection
Method in brief: (§1)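 For the nucleation score, DiMSum gave the log enrichment of output over input reads, centred on the mode score of non-aggregating sequences. Psi-negative yeast expressing Sup35N fused to peptides of 20 random codons were induced with 100 μM copper sulfate for 24 hours and grown 7 days at 30°C on medium lacking adenine and uracil. Input and output plasmid inserts were Illumina-sequenced, and sequences with under 100 input reads were excluded.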

| Substance | amyloid nucleation score |
| --- | --- |
| TNYICCSFRFPWNHSYV | 3.4 ± 0.061 |
| THGVR | inactive |
| LKDCTCEFIFMTGKYCIYFR | -0.495 ± 0.76 |
| KPDVY | inactive |
| RLVMHSRHTMLLHARGLRSR | inactive |
| LNVGCLWRGDGGNRRAQWDV | inactive |
| VGVYITMVYVSIKENRVEGN | 0.804 ± 0.17 |
| KARWYFIVLNVVTHSWDSKV | inactive |
| AVVRDDLVSCPPSAATLQIP | inactive |
| KCMFSIFSGAASVLLKMFMV | inactive |
| NLDLSGGESASWRNFSFFLK | inactive |
| ISVIYLS | inactive |
| EWKVLYFFGDAFRLFNRWSG | inactive |
| KNNGTSKGVCRLQIMLFGLA | inactive |
| VSLMP | inactive |
| SDISRQYICVMYVSRLRG | inactive |
| SMCGNWGNWASVGWNFCWRV | inactive |
| YDCFFTEIAVVVNIE | inactive |
| VTRETADDATVSQFWLNPSE | inactive |
| LCHSSRGDIH | inactive |
| IYHSYNESVCTYSNHPSRM | inactive |
| CYSVDRDV | inactive |
| YLGVSILVSSYYWVRVGTGR | inactive |
| KSWGLVHKCSSAFMFPKFCP | inactive |
| FKLDSMCRLKRAAN | inactive |
| RYPLSDDPLGIVWITYMLAN | inactive |

| Substance | amyloid nucleation score |
| --- | --- |
| KCLLGLSLVRAKRSKLWMW | inactive |
| APNFCWSLFYVDSNVEFERL | inactive |
| GYMWGLEDNFALWTGRNNYV | inactive |
| RMRLRVSVILGA | 0.997 ± 0.11 |
| YNSIMFNGW | inactive |
| DSFSTDCVFYEIMCSEVRLA | inactive |
| SRILGNRMAFTA | inactive |
| GWFSYSRMSNCSLNSTK | inactive |
| LILCRCCSGVYRTRVMKLLL | inactive |
| FLIKNMY | inactive |
| ANPLAYLQSMSGTSGNT | inactive |
| SNSFSSSLLCLDARD | inactive |
| PTNWLVFYFCSGYAFNSFED | 3.31 ± 0.074 |
| SGRVTRWITSAMVARN | inactive |
| SPYPITGLFWCFINWSHKVM | inactive |
| NISLN | inactive |
| SSSSNANGFNRHYLSVRFGE | inactive |
| FLWMSAEGLSK | inactive |
| FTRTREMENCNFLNFYRYMV | inactive |
| NIWVQ | inactive |
| VNFYADRASVHVHSVFHTQD | inactive |
| YIVLMSLLFGM | inactive |
| SLSPAGSGSFFGKGFWMMLA | inactive |
| YELMIFVTELALLDEILPEQ | inactive |
| FACFAVIILHVIMYVRMSSV | inactive |
| SDVDDKVHKVHQQLVAILHF | 0.624 ± 0.17 |

experiment: amyloid nucleation score (Sup35N fusion, yeast selection) (log enrichment); library NNK2; higher = more nucleation; inactive = no reads after selection
Method in brief: as §1

| Substance | amyloid nucleation score |
| --- | --- |
| NCIFDMLLVLR | inactive |
| FNAERFLQSIEMVWWDKGFL | -1.53 ± 0.41 |
| SLNDKFSLMGLICFWWWCLV | -0.184 ± 0.79 |
| VQLDSSFLIM | 1.02 ± 0.48 |
| VLLFLSMEVLNRNGMKVPVM | 2.17 ± 0.16 |
| LRPDYLERYFWLWHSTDKLF | -1.14 ± 0.49 |
| LPVHANNGVNMFILIVPPGS | 5.948 ± 0.051 |
| NNIVIYDDLYNSMMALLWS | -1.25 ± 0.64 |
| KLSYFAFFRSVDGLR | 0.508 ± 0.53 |
| WDIYQVGGTMSLDVFVKV | -0.2 ± 0.3 |
| ICYLKTQGKWFIILPWFVMM | 0.241 ± 0.8 |
| CDHQRLMTYLVPAGYMPDTM | -0.201 ± 0.62 |
| GIGLRLCLSDRLWMRSIYVD | 3.56 ± 0.082 |
| LNRFGSSNSLITKFC | -1.58 ± 1 |
| IRDWHWTNVGSCNCCFFCQG | 9.244 ± 0.079 |
| LFWELEM | 4.7 ± 0.091 |
| PVRRRGNLFIRRLLSFEKKL | inactive |
| ARNTDNPMSNGPYIWIGPY | 1.21 ± 0.2 |
| EKLWIMLTLICNIVRSPSYK | -0.515 ± 1.1 |
| ICSYSVAGCYRKYRASFSGE | inactive |
| NDRNYLSGSGESELLPDCND | -0.434 ± 0.76 |
| LTCSKSPIWWAIIFVGYFTN | 0.022 ± 0.62 |
| MQIKFKS | -0.38 ± 0.56 |
| FKQYFSYLVGLYRS | 0.472 ± 0.8 |
| LSASW | 1.44 ± 0.38 |
| MYNRG | 3.87 ± 0.11 |
| VGGYLAICNGLSSLCLDPG | -0.59 ± 1.1 |
| VFIMRISCY | -0.424 ± 1.1 |
| EYTHRSERFIMGNVISKVRM | 0.255 ± 0.49 |
| NVGSVKHGS | 0.531 ± 0.57 |
